Measured values as given in patent publication US20220323583A1, “Pharmaceutical Formulations of Bi-Specific Diabodies and Use of the Same” (MacroGenics, Inc., priority 2019, published 2022).

Columns and labels:
Human CD123-His = target: T1, Human CD123-His (Homo sapiens, UniProt P26951); assay: Binding of DART-A to CD123 (ka, kd, KD)
T1 sequence (P26951 19-378): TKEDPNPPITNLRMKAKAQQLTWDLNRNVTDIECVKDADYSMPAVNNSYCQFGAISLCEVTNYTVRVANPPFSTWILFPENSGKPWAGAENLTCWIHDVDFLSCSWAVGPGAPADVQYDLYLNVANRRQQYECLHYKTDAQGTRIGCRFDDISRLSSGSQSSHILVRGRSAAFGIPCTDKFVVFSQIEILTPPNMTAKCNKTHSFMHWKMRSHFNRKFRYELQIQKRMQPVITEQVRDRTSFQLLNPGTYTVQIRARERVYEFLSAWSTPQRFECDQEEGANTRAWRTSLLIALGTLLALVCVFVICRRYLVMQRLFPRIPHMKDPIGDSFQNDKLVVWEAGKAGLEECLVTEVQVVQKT

Cynomolgus CD123-His = assay: Binding of DART-A to CD123 (ka, kd, KD); set-up: species or system cynomolgus monkey
Molm13 = assay: Redirected killing of target cell line; assay type: cell-based
HT29 = assay: Redirected killing of target cell line; assay type: cell-based; conditions: HT29 (CD123 negative)
[1] = Differential scanning calorimetry (DSC), thermal stability; assay type: physicochemical; conditions: DP buffer with or without PS80 (150 mM NaCl, 10 mM sodium phosphate, pH 6.0)
Protocol: Differential Scanning calorimetry measures the energetics of protein unfolding during a temperature ramp. Peaks represent apparent melting temperatures and the area under the peaks represent the enthalpy of the thermal transition. Data were collected for duplicate samples over 20° C. to 90° C. range using temperature ramp rate of 60° C./hour.

[2] = test system: soluble recombinant human CD3 (shCD3-Fos-Jun); assay: CD3 binding ELISA (relative potency); conditions: Relative Potency vs DART-A reference standard, 1250 ng/mL dosing solution, Stabilizer 2
Sequence of soluble recombinant human CD3 (shCD3-Fos-Jun) (P07766 23-126 limits assumed): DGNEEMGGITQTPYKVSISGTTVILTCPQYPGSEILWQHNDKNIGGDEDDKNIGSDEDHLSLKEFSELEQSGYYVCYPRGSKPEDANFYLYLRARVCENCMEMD
From the text: The two CD3 chains (delta and gamma) contain either the Fos protein or the Jun protein to enhance proper folding and functionality of the CD3 complex. […] The soluble CD3-Fos-Jun, was coated on the surface of an ELISA plate. […] Quantification of bound probe antibody was achieved by addition of a colorimetric AP substrate (AP-Yellow 1 Component Substrate). Oxidation of AP-Yellow by AP yields a colored product that can be read at 405±10 nm. The assay was quantified by the intensity of color, measured using a spectrophotometer set to an optimal wavelength of 405±10 nm. Data were fitted to a four-parameter model with the following variable constraints: the maximum, minimum and slope of each dose response curve is set to be shared between all dose response curves on the plate; the EC50 was determined independently for each curve.

pH = assay type: physicochemical; conditions: for pH: normal saline IV bag with Stabilizer 2
Visual appearance = assay type: physicochemical; conditions: for Appearance / Appearance, Particulates: 1250 ng/mL dosing solution
[3] = 10 ng/mL dosing solution, Stabilizer 2, Post Infusion (Infusion Time = 48 Hrs)
[4] = 10 ng/mL dosing solution, Stabilizer 2, Post Storage (T = 72 Hrs), room temperature
[5] = 10 ng/mL dosing solution, Stabilizer 2, T = 0
[6] = 20 ng/mL dosing solution, Stabilizer 2, Post Infusion (Infusion Time = 96 Hrs)
[7] = 20 ng/mL dosing solution, Stabilizer 2, Post Storage (T =72 Hrs), room temperature
[8] = 20 ng/mL dosing solution, Stabilizer 2, T = 0
[9] = Stabilizer 2, Post Infusion (Infusion Time = 48 Hrs)
[10] = Stabilizer 2, Post Storage (T = 72 Hrs), room temperature

B1: DART-A: sequence-optimized CD123×CD3 bispecific diabody; chains SEQ ID NO:42 and SEQ ID NO:44 covalently bonded by a disulfide bond (protein)
chain 1: QAVVTQEPSLTVSPGGTVTLTCRSSTGAVTTSNYANWVQQKPGQAPRGLIGGTNKRAPWTPARFSGSLLGGKAALTITGAQAEDEADYYCALWYSNLWVFGGGTKLTVLGGGGSGGGGEVQLVQSGAELKKPGASVKVSCKASGYTFTDYYMKWVRQAPGQGLEWIGDIIPSNGATFYNQKFKGRVTITVDKSTSTAYMELSSLRSEDTAVYYCARSHLLRASWFAYWGQGTLVTVSSGGCGGGEVAALEKEVAALEKEVAALEKEVAALEK
chain 2: DFVMTQSPDSLAVSLGERVTMSCKSSQSLLNSGNQKNYLTWYQQKPGQPPKLLIYWASTRESGVPDRFSGSGSGTDFTLTISSLQAEDVAVYYCQNDYSYPYTFGQGTKLEIKGGGSGGGGEVQLVESGGGLVQPGGSLRLSCAASGFTFSTYAMNWVRQAPGKGLEWVGRIRSKYNNYATYYADSVKDRFTISRDDSKNSLYLQMNSLKTEDTAVYYCVRHGNFGNSYVSWFAYWGQGTLVTVSSGGCGGGKVAALKEKVAALKEKVAALKEKVAALKE
modifications: interchain disulfide bond; First Polypeptide Chain of DART-A; Second Polypeptide Chain of DART-A
- ka (± SD) (Human CD123-His): 1.6 (± 0.4) × 10^6 M^−1s^−1
- kd (± SD) (Human CD123-His): 1.9 (± 0.4) × 10^−4 s^−1
- ka (± SD) (Cynomolgus CD123-His): 1.5 (± 0.3) × 10^6 M^−1s^−1
- kd (± SD) (Cynomolgus CD123-His): 4.0 (± 0.7) × 10^−4 s^−1
- Max % Killing (Molm13): 43%
- Max % Killing (HT29): No activity
- EC50, redirected killing (HT29; E:T = 10:1): No activity
- melting temperature (Tm), DSC [1]: 64 °C
- % Potency, CD3 binding ([2]; Post Infusion (Infusion Time = 48 Hrs)): 92%
- % Potency, CD3 binding ([2]; Post Storage (T = 72 Hrs), room temperature): 101%
- % Potency, CD3 binding ([2]; T = 0): 111%
- pH (pH; 10 ng/mL dosing solution, Post Infusion (Infusion Time = 48 Hrs)): 8.1
- pH (pH; 10 ng/mL dosing solution, Post Storage (T = 72 Hrs), room temperature): 8.1
- pH (pH; 10 ng/mL dosing solution, T = 0): 8.1
- pH (pH; 20 ng/mL dosing solution, Post Infusion (Infusion Time = 96 Hrs)): 7.9
- pH (pH; 20 ng/mL dosing solution, Post Storage (T =72 Hrs), room temperature): 8.1
- pH (pH; 20 ng/mL dosing solution, T = 0): 8.1
- pH (pH; 1250 ng/mL dosing solution, Post Infusion (Infusion Time = 48 Hrs)): 8.0
- pH (pH; 1250 ng/mL dosing solution, Post Storage (T = 72 Hrs), room temperature): 8.0
- pH (pH; 1250 ng/mL dosing solution, T = 0): 8.0
- changes in pH, visual appearance and osmolality post-infusion vs T=0 (pH; Stabilizer 2 dosing solutions): no significant changes in pH, visual appearance, and osmolality
- Visual Appearance (Visual appearance; [3]): C, L
- Visual Appearance, Particulates (Visual appearance; [3]): FNP, FPP
- Visual Appearance (Visual appearance; [4]): C, L
- Visual Appearance, Particulates (Visual appearance; [4]): FNP, FPP
- Visual Appearance (Visual appearance; [5]): C, L
- Visual Appearance, Particulates (Visual appearance; [5]): FNP, FPP
- Visual Appearance (Visual appearance; [6]): C, L
- Visual Appearance, Particulates (Visual appearance; [6]): FNP, FPP
- Visual Appearance (Visual appearance; [7]): C, L
- Visual Appearance, Particulates (Visual appearance; [7]): FNP, FPP
- Visual Appearance (Visual appearance; [8]): C, L
- Visual Appearance, Particulates (Visual appearance; [8]): FNP, FPP
- Appearance (Visual appearance; [9]): C, L
- Appearance, Particulates (Visual appearance; [9]): FNP, FPP
- Appearance (Visual appearance; [10]): C, L
- Appearance, Particulates (Visual appearance; [10]): FNP, FPP
- Appearance (Visual appearance; Stabilizer 2, T = 0): C, L
- Appearance, Particulates (Visual appearance; Stabilizer 2, T = 0): FNP, FPP
- Visual Appearance (Visual appearance; 0.1 mg/mL in Stabilizer 2 dosing solution, storage and administration): No change in visual appearance
- visual appearance of dosing solutions (Visual appearance; Stabilizer 2 in saline bag, T=0, after 72 h storage and post infusion (48 or 96 hours)): clear, colorless with no visible particulates
